Source: patent US9879306B2, “Luciferase biosensors for cAMP” (PROMEGA CORPORATION, priority 2008, dated 2018)
Residue numbers refer to the chain shown, from its start. Numbers in names are those of the source.

T1: GPR41 (Homo sapiens, UniProt O14843)
T1 sequence (O14843 1-346): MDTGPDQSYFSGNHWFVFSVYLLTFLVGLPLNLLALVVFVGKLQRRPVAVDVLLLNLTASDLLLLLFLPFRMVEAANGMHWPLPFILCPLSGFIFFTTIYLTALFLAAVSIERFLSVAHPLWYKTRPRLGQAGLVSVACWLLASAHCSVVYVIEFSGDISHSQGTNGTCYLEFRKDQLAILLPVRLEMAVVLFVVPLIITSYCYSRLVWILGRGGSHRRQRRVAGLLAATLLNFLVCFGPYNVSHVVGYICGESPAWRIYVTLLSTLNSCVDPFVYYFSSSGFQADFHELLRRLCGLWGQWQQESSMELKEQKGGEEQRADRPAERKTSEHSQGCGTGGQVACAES

B1: L9-ILY: L9 background with Luc2.0 F369I, F518L and RIIβB F407Y; SEQ ID NO:82, 83 (protein)
chain: MPGAVGKVVPFIEAKVVDLDTGKTLGVNQRGELCVRGPMIMSGYVNNPEATNALIDKDGWLHSGDIAYWDEDEHFFIVDRLKSLIKYKGYQVAPAELESILLQHPNIFDAGVAGLPDDDAGELPAAVVVLEHGKTMTEKEIVDYVASQVTTAKKLRGGVVLVDEVPKGLTGKLDARKIREILIKAKKGSIAGCGDAGEGMYESFIESLPILKSLEFSARLKVVDVIGTKVYNDGEQIIAQGDSADSFYIIESGEVKITMKRKGKSEVEENGAVEIARCSRGQYFGELALVTNKPRAASAHAIGTVKCLAMDVQAFERLLGPCMEIMKRNIATYEEQLVALYGTNMDIVAKNIKKGPAPLYPLEDGTAGEQLHKAMKRYALVPGTIAFTDAHIEVDITYAEYFEMSVRLAEAMKRYGLNTNHRIVVCSENSLQFFMPVLGALFIGVAVAPANDIYNERELLNSMGISQPTVVFVSKKGLQKILNVQKKLPIIQKIIIMDSKTDYQGFQSMYTFVTSHLPPGFNEYDFVPESFDRDKTIALIMNSSGSTGLPKGVALPHRTACVRFSHARDPIFGNQIIPDTAILSVVPFHHGFGMFTTLGYLICGFRVVLMYRFEEELFLRSLQDYKIQSALLVPTLFSFFAKSTLIDKYDLSNLHEIASGGAPLSKEVGEAVAKRFHLPGIRQGYGLTETTSAILITPEGV
B2: L9-ILQ: L9 background with Luc2.0 F369I, F518L, K541Q; SEQ ID NO:86, 87 (protein)
chain: B1 chain with K184Q, I210F, Y248F, Y341F, L359F
B3: L9-I: L9 background with Luc2.0 F369I; SEQ ID NO:92, 93 (protein)
chain: B1 chain with L161F, I210F, Y248F, Y341F, L359F
B4: L9-IQ: L9 background with Luc2.0 F369I, K541Q; SEQ ID NO:74, 75 (protein)
chain: B1 chain with L161F, K184Q, I210F, Y248F, Y341F, L359F
B5: L9-LQ: L9 background with Luc2.0 F518L, K541Q; SEQ ID NO:102, 103 (protein)
chain: B1 chain with I12F, K184Q, I210F, Y248F, Y341F, L359F
B6: L9-Y: L9 background with RIIβB F407Y; SEQ ID NO:98, 99 (protein)
chain: B1 chain with I12F, L161F, I210F, Y248F, L359F
B7: L9-L: L9 background with Luc2.0 F518L; SEQ ID NO:94, 95 (protein)
chain: B1 chain with I12F, I210F, Y248F, Y341F, L359F
B8: L9-LY: L9 background with Luc2.0 F518L and RIIβB F407Y; SEQ ID NO:100, 101 (protein)
chain: B1 chain with I12F, I210F, Y248F, L359F
B9: L9-QY: L9 background with Luc2.0 K541Q and RIIβB F407Y; SEQ ID NO:90, 91 (protein)
chain: B1 chain with I12F, L161F, K184Q, I210F, Y248F, L359F
B10: L9-LQY: L9 background with Luc2.0 F518L, K541Q and RIIβB F407Y; SEQ ID NO:88, 89 (protein)
chain: B1 chain with I12F, K184Q, I210F, Y248F, L359F
B11: L9-IL: L9 background with Luc2.0 F369I, F518L; SEQ ID NO:84, 85 (protein)
chain: B1 chain with I210F, Y248F, Y341F, L359F
B12: L9-Q: L9 background with Luc2.0 K541Q; SEQ ID NO:96, 97 (protein)
chain: B1 chain with I12F, L161F, K184Q, I210F, Y248F, Y341F, L359F
B13: 7A1-ILQ: 7A1 background with Luc2.0 F369I, F518L, K541Q; SEQ ID NO:68, 69 (protein)
chain: MPGAVGKVVPFIEAKVVDLDTGKTLGVNQRGELCVRGPMIMSGYVNNPEATNALIDKDGWLHSGDIAYWDEDEHFFIVDRLKSLIKYKGYQVAPAELESILLQHPNIFDAGVAGLPDDDAGELPAAVVVLEHGKTMTEKEIVDYVASQVTTAKKLRGGVVLVDEVPKGLTGKLDARKIREILIQAKKGSNWDSGCSREGMYESFIESLPFLKSLEFSARLKVVDVIGTKVYNDGEQIIAQGDSADSFFIIESGEVKITMKRKGKSEVEENGAVEIARCSRGQYFGELALVTNKPRAASAHAIGTVKCLAMDVQAFERLLGPCMEIMKRNIATYEEQLVALFGTNMDIVAKNIKKGPAPFYPLEDGTAGEQLHKAMKRYALVPGTIAFTDAHIEVDITYAEYFEMSVRLAEAMKRYGLNTNHRIVVCSENSLQFFMPVLGALFIGVAVAPANDIYNERELLNSMGISQPTVVFVSKKGLQKILNVQKKLPIIQKIIIMDSKTDYQGFQSMYTFVTSHLPPGFNEYDFVPESFDRDKTIALIMNSSGSTGLPKGVALPHRTACVRFSHARDPIFGNQIIPDTAILSVVPFHHGFGMFTTLGYLICGFRVVLMYRFEEELFLRSLQDYKIQSALLVPTLFSFFAKSTLIDKYDLSNLHEIASGGAPLSKEVGEAVAKRFHLPGIRQGYGLTETTSAILITPEGV
B14: 7A1-Q: 7A1 background with Luc2.0 K541Q; SEQ ID NO:62, 63 (protein)
chain: B13 chain with I12F, L161F
B15: 7A1-IQ: 7A1 background with Luc2.0 F369I, K541Q; SEQ ID NO:23, 24 (protein)
chain: B13 chain with L161F
B16: 7A1-IL: 7A1 background with Luc2.0 F369I, F518L; SEQ ID NO:70, 71 (protein)
chain: B13 chain with Q184K
B17: L9-IY: L9 background with Luc2.0 F369I and RIIβB F407Y; SEQ ID NO:76, 77 (protein)
chain: B1 chain with L161F, I210F, Y248F, L359F
B18: L9-IQY: L9 background with Luc2.0 F369I, K541Q and RIIβB F407Y; SEQ ID NO:78, 79 (protein)
chain: B1 chain with L161F, K184Q, I210F, Y248F, L359F
B19: 7A1-IQY: 7A1 background with Luc2.0 F369I, K541Q and RIIβB F407Y; SEQ ID NO:29, 30 (protein)
chain: B13 chain with L161F, F341Y
B20: L9-ILQY: L9 background with Luc2.0 F369I, F518L, K541Q and RIIβB F407Y; SEQ ID NO:80, 81 (protein)
chain: B1 chain with K184Q, I210F, Y248F, L359F

target: T1, GPR41; assay: Sodium proprionate CRC with biosensor variants in HEK293 cells stably expressing GPR41; type: cell-based; conditions: with FSK 1 μM
Procedure: (§1) After 24 hours, the cells were transiently transfected with one of the cAMP biosensor variants (Tables 7A and 7B). After another 24 hours, the cells were equilibrated for 2 hours at room temperature using 5 mM EF-luc in CO2 independent media with 10% FBS. Prior to the addition of the compounds, luminescence was measured. The compounds (12× stock in CO2 independent media without FBS) were then added to the cells. For GPR41 expressing cells, sodium proprionate CRC was added. […] The cells were allowed to incubate another 30 minutes and luminescence read on a Varioskan Flash. EC50 values and fold responses were calculated for each of the clones with each of the compounds with or without FSK. In addition, variants […]7 (Example VIIB), 16A2 (Example VIIB) and GS358 were also screened.

First: B1
Second: B2
The “Fold Response Na proprionate + FSK(1 μM)” value of the first is lower: 4.91 fold for the first, 10.21 fold for the second.

Going from B3 to B4, the “Fold Response Na proprionate + FSK(1 μM)” value rises from 3.83 fold to 5.17 fold.

Going from B5 to B6, the “Fold Response Na proprionate + FSK(1 μM)” value falls from 7.20 fold to 3.88 fold.

Compared with B7, B8 is lower in “Fold Response Na proprionate + FSK(1 μM)” value: 5.72 fold for the first, 5.57 fold for the second.

Going from B9 to B10, the “Fold Response Na proprionate + FSK(1 μM)” value rises from 10.02 fold to 13.78 fold.

Going from B11 to B12, the “Fold Response Na proprionate + FSK(1 μM)” value falls from 7.43 fold to 5.24 fold.

Going from B13 to B14, the “Fold Response Na proprionate + FSK(1 μM)” value falls from 5.68 fold to 4.26 fold.

Going from B15 to B16, the “Fold Response Na proprionate + FSK(1 μM)” value rises from 3.42 fold to 4.36 fold.

same assay, conditions: without FSK, ratio of induced to uninduced signal

Going from B1 to B2, the “Fold Response Na proprionate” value rises from 3.34 fold to 4.13 fold.

Going from B17 to B3, the “Fold Response Na proprionate” value rises from 2.53 fold to 3.61 fold.

Going from B4 to B5, the “Fold Response Na proprionate” value falls from 3.41 fold to 2.83 fold.

Compared with B6, B7 is higher in “Fold Response Na proprionate” value: 2.17 fold for the first, 3.04 fold for the second.

First: B8
Second: B9
The “Fold Response Na proprionate” value of the first is higher: 2.07 fold for the first, 2.01 fold for the second.

Going from B18 to B10, the “Fold Response Na proprionate” value falls from 3.82 fold to 1.95 fold.

First: B11
Second: B12
The “Fold Response Na proprionate” value of the first is higher: 3.67 fold for the first, 2.57 fold for the second.

First: B19
Second: B13
The “Fold Response Na proprionate” value of the first is lower: 2.42 fold for the first, 4.09 fold for the second.

First: B14
Second: B15
The “Fold Response Na proprionate” value of the first is lower: 2.26 fold for the first, 3.66 fold for the second.

In the case of B16, the “Fold Response Na proprionate” value is reported as 4.66 fold.

system: GPR41; assay: as above; type: cell-based; conditions: ratio of RLU of FSK treated well to untreated well
Procedure: as §1

First: B1
Second: B2
The “Fold Signal Change” value of the first is higher: 161.2 fold for the first, 140.4 fold for the second.

Compared with B17, B3 is lower in “Fold Signal Change” value: 86.4 fold for the first, 83.5 fold for the second.

First: B4
Second: B5
The “Fold Signal Change” value of the first is lower: 64.0 fold for the first, 98.6 fold for the second.

First: B20
Second: B6
The “Fold Signal Change” value of the first is higher: 152.7 fold for the first, 55.8 fold for the second.

Compared with B7, B8 is higher in “Fold Signal Change” value: 72.2 fold for the first, 126.7 fold for the second.

First: B9
Second: B18
The “Fold Signal Change” value of the first is lower: 61.3 fold for the first, 96.0 fold for the second.

First: B10
Second: B11
The “Fold Signal Change” value of the first is higher: 136.0 fold for the first, 96.7 fold for the second.

Going from B12 to B19, the “Fold Signal Change” value rises from 42.0 fold to 128.0 fold.

First: B13
Second: B14
The “Fold Signal Change” value of the first is higher: 181.8 fold for the first, 71.6 fold for the second.

First: B15
Second: B16
The “Fold Signal Change” value of the first is lower: 128.0 fold for the first, 200.0 fold for the second.
